{"source": "paper PMC13324855", "key": {"[1]": {"target": "SARS-CoV-1 receptor-binding domain (RBD), wild type (SARS-CoV-1)", "experiment": "flow cytometry on cells"}, "[2]": {"target": "SARS-CoV-2 spike receptor-binding domain, Wuhan-Hu-1 (WT RBD) (SARS-CoV-2) (UniProt P0DTC2)", "experiment": "flow cytometry on cells"}}, "note": "Values joined by “and” are separate entries in the source; they are usually repeats but may differ in a detail not shown here. Equal entries are not always repeated.", "data": [{"substance": "angiotensin converting enzyme 2 (ACE2) peptidase domain, ACE2D (domain or fragment)", "values": [{"measurement": "Kd", "setting": "[1]", "value": "1.51 nM and 1.72 nM and 1.9 nM"}, {"measurement": "EC25", "setting": "[2]", "value": 2, "unit": "nM"}]}]}
